Series [1] concerns the target S-formylglutathione hydrolase (SfSFGH) from Shewanella frigidimarina (Shewanella frigidimarina). Description: AUC; SfSFGH in 150 mM NaCl, 20 mM Tris-HCl pH 8.0, 20 °C, 40,000 rpm, monitored at 280 nm, analysed with SEDFIT.
Substrate in series [2]: CC(=O)Oc1ccc([N+](=O)[O-])cc1
Description: purified protein. In kind it is biochemical, Shewanella frigidimarina. Particulars: 20 mM Tris-HCl pH 8.0, 120 mM NaCl, room temperature.

Substrate in series [3]: CCCC(=O)Oc1ccc([N+](=O)[O-])cc1
Description: purified protein. It is filed as biochemical, Shewanella frigidimarina. Particulars: 20 mM Tris-HCl pH 8.0, 120 mM NaCl, room temperature.

Substrate in series [4]: CCCCCCCC(=O)Oc1ccc([N+](=O)[O-])cc1
Description: purified protein. It is filed as biochemical, Shewanella frigidimarina. Particulars: 20 mM Tris-HCl pH 8.0, 120 mM NaCl, room temperature.

The text below walks through data of article PMC6699074, “Structural and functional characterization of a novel cold-active S-formylglutathione hydrolase (SfSFGH) homolog from Shewanella frigidimarina, a psychrophilic bacterium” (Microbial Cell Factories, 2019).

Positions count from the first letter of the chain named. Names and notes keep the numbering of the source.

Usually stoichiometry N stands for the number of molecules, sites or subunits per partner or assembly. What is called Vmax is the rate approached at saturating substrate. Broadly, the kcat/Km is the turnover number divided by the Michaelis constant.

Turning to “S-formylglutathione hydrolase (SfSFGH) from Shewanella frigidimarina (enzyme)”, the stoichiometry N in series [1] is 2.

B1: SfSFGH (Shewanella frigidimarina NCIMB 400) (protein)
chain: MTIENMSVNKSFGGWHKQYSHQSQTLNCEMRFAIYLPPQASSGKKVPVLYWLSGLTCTDENFMQKAGAQALAAELGIAIVAPDTSPRGENVADDEGYDLGKGAGFYVNATQAPWNRHYRMYDYVVDELPKLIESMFPVSDKRSIAGHSMGGHGALVIALRNADAYQSVSAFSPISNPINCPWGKKALTAYLGRDSATWMEYDASVLMRQATQFVPALVDQGDADNFLVEQLKPEVLEAAAKVKGYPLELNYREGYDHSYYFISSFIENHLRFHAEHLGK
As to B1, in the series “purified protein [2]”, the Km is reported as 515 (± 42.8) µM and the kcat is listed as 0.310 (± 0.0258) s^-1.

B2: SfSFGH (Shewanella frigidimarina NCIMB 400; W182A) (protein)
chain: B1 chain with W182A
Regarding B2, in “purified protein [2]”, the Km is 1.393 ± 0.136 mM, the Vmax was 323 µM/min, the kcat came out at 1.85 ± 0.092 s⁻¹ and the kcat/Km worked out at 1300 M⁻¹ s⁻¹. For the same molecule, in “purified protein [3]”, the Km was found to be 303 ± 49 µM, the Vmax is 51.7 µM/min, the kcat was found to be 8 ± 0.326 s⁻¹ and the specificity constant (kcat/Km) came to 26400 M⁻¹ s⁻¹. Also, in the series “purified protein [4]”, the Km is 495 ± 85 µM, the Vmax amounted to 28.6 µM/min, the kcat amounted to 0.144 ± 0.007 s⁻¹ and the kcat/Km was found to be 300 M⁻¹ s⁻¹.
